Starred links: 1 amine or outer side, 2 acyl side, 3 side chain; linkers in the order of their positions; H or OH if unused. Non-standard residues stand in square brackets, D forms with d. Groups on a side chain read outwards from the residue. No end group written: not given here. *: point of attachment. C18 diacid = O=C(O)CCCCCCCCCCCCCCCCC(=O)*; C16 diacid = O=C(O)CCCCCCCCCCCCCCC(=O)*; γGlu = O=C(O)[C@H](CCC(=O)[*:2])N[*:1]; εLys = N[C@@H](CCCCN[*:1])C(=O)[*:2]; AEEA = NCCOCCOCC(=O)O; Aib = CC(C)(N)C(=O)O
T1: human GIP receptor (human, UniProt P48546 22-466)
T1 sequence (looked up): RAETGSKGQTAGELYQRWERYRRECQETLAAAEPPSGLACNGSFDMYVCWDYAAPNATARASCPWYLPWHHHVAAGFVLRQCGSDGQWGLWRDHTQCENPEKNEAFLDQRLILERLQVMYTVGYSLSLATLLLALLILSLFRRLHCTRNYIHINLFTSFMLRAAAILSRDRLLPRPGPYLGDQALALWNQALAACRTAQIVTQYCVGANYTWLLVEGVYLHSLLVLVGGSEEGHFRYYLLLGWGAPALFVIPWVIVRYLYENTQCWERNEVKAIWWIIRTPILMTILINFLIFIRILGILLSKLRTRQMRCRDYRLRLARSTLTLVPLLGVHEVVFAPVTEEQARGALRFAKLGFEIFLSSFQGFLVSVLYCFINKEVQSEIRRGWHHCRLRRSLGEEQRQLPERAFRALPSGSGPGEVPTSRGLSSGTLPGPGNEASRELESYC


Tests used:
human GIP receptor = molecular target: T1, human GIP receptor; assay: cell-based or functional assay
human GLP-1 receptor = human GLP-1 receptor (human, UniProt P43220 24-463); assay: cell-based or functional assay

Row | Binder | hGIPR, CRE Luc 0% HSA EC50 (pM) (human GIP receptor) | hGIPR, CRE Luc 1% HSA EC50 (pM) (human GIP receptor) | hGLP-1R, CRE Luc 0% HSA EC50 (pM) (human GLP-1 receptor) | hGLP-1R, CRE Luc 1% HSA EC50 (pM) (human GLP-1 receptor)
1 | Y[Aib]EGTVTSDYSILLEK([εLys-εLys-γGlu-C18 diacid])QAAREFINWLLAGGPSSGAPPPS-OH (N-terminus assumed; SMILES CC[C@H](C)[C@H](NC(=O)[C@H](Cc1ccccc1)NC(=O)[C@H](CCC(=O)O)NC(=O)[C@H](CCCNC(=N)N)NC(=O)[C@H](C)NC(=O)[C@H](C)NC(=O)[C@H](CCC(N)=O)NC(=O)[C@H](CCCCNC(=O)[C@@H](N)CCCCNC(=O)[C@@H](N)CCCCNC(=O)CC[C@H](NC(=O)CCCCCCCCCCCCCCCCC(=O)O)C(=O)O)NC(=O)[C@H](CCC(=O)O)NC(=O)[C@H](CC(C)C)NC(=O)[C@H](CC(C)C)NC(=O)[C@@H](NC(=O)[C@H](CO)NC(=O)[C@H](Cc1ccc(O)cc1)NC(=O)[C@H](CC(=O)O)NC(=O)[C@H](CO)NC(=O)[C@@H](NC(=O)[C@@H](NC(=O)[C@@H](NC(=O)CNC(=O)[C@H](CCC(=O)O)NC(=O)C(C)(C)NC(=O)[C@@H](N)Cc1ccc(O)cc1)[C@@H](C)O)C(C)C)[C@@H](C)O)[C@@H](C)CC)C(=O)N[C@@H](CC(N)=O)C(=O)N[C@@H](Cc1c[nH]c2ccccc12)C(=O)N[C@@H](CC(C)C)C(=O)N[C@@H](CC(C)C)C(=O)N[C@@H](C)C(=O)NCC(=O)NCC(=O)N1CCC[C@H]1C(=O)N[C@@H](CO)C(=O)N[C@@H](CO)C(=O)NCC(=O)N[C@@H](C)C(=O)N1CCC[C@H]1C(=O)N1CCC[C@H]1C(=O)N1CCC[C@H]1C(=O)N[C@@H](CO)C(=O)O) [Compound No. 33] | 2.9 | 103 | 14.8 | 361
2 | Y[Aib]EGTFTSDYSILLEK([AEEA-AEEA-γGlu-C18 diacid])QAAREFINWLLAGGPSSGAPPPS-OH [Compound No. 35] | 5.2 | 303 | 3 | 413
3 | Y[Aib]EGTFTSDYSILLEEQAAREFIEWLLAGGPSK([AEEA-AEEA-γGlu-C18 diacid])GAPPPS-OH [Compound No. 45] | 3.8 | 1220 | 3.9 | 1580
4 | Y[Aib]EGTFTSDYSILLEEQAAREFIEWLLAGGPSKGAPPPS-OH (not fully specified (residue 33)) [Compound No. 47] | 3.1 | 156 | 2.1 | 154
5 | Y[Aib]EGTFTSDYSYYLEK([εLys-εLys-γGlu-C18 diacid])QAAQAFVNWLLAGGPSSGAPPPS-NH2 (N-terminus assumed; SMILES CC(C)C[C@H](NC(=O)[C@H](CC(C)C)NC(=O)[C@H](Cc1c[nH]c2ccccc12)NC(=O)[C@H](CC(N)=O)NC(=O)[C@@H](NC(=O)[C@H](Cc1ccccc1)NC(=O)[C@H](C)NC(=O)[C@H](CCC(N)=O)NC(=O)[C@H](C)NC(=O)[C@H](C)NC(=O)[C@H](CCC(N)=O)NC(=O)[C@H](CCCCNC(=O)[C@@H](N)CCCCNC(=O)[C@@H](N)CCCCNC(=O)CC[C@H](NC(=O)CCCCCCCCCCCCCCCCC(=O)O)C(=O)O)NC(=O)[C@H](CCC(=O)O)NC(=O)[C@H](CC(C)C)NC(=O)[C@H](Cc1ccc(O)cc1)NC(=O)[C@H](Cc1ccc(O)cc1)NC(=O)[C@H](CO)NC(=O)[C@H](Cc1ccc(O)cc1)NC(=O)[C@H](CC(=O)O)NC(=O)[C@H](CO)NC(=O)[C@@H](NC(=O)[C@H](Cc1ccccc1)NC(=O)[C@@H](NC(=O)CNC(=O)[C@H](CCC(=O)O)NC(=O)C(C)(C)NC(=O)[C@@H](N)Cc1ccc(O)cc1)[C@@H](C)O)[C@@H](C)O)C(C)C)C(=O)N[C@@H](C)C(=O)NCC(=O)NCC(=O)N1CCC[C@H]1C(=O)N[C@@H](CO)C(=O)N[C@@H](CO)C(=O)NCC(=O)N[C@@H](C)C(=O)N1CCC[C@H]1C(=O)N1CCC[C@H]1C(=O)N1CCC[C@H]1C(=O)N[C@@H](CO)C(N)=O) [Compound No. 4] | 8.5 | 294 | 6.6 | 484
6 | Y[Aib]EGTFTSDYSILLEEQAAREFIEWLLAGGPSK([εLys-εLys-γGlu-C16 diacid])GAPPPS-OH [Compound No. 46] | 1.8 | 97 | 1.5 | 111
7 | Y[Aib]EGTFTSDYSIILEK([AEEA-AEEA-γGlu-C18 diacid])QAAREFINWLLAGGPSSGAPPPS-OH (N-terminus assumed; SMILES CC[C@H](C)[C@H](NC(=O)[C@H](Cc1ccccc1)NC(=O)[C@H](CCC(=O)O)NC(=O)[C@H](CCCNC(=N)N)NC(=O)[C@H](C)NC(=O)[C@H](C)NC(=O)[C@H](CCC(N)=O)NC(=O)[C@H](CCCCNC(=O)COCCOCCNC(=O)COCCOCCNC(=O)CC[C@H](NC(=O)CCCCCCCCCCCCCCCCC(=O)O)C(=O)O)NC(=O)[C@H](CCC(=O)O)NC(=O)[C@H](CC(C)C)NC(=O)[C@@H](NC(=O)[C@@H](NC(=O)[C@H](CO)NC(=O)[C@H](Cc1ccc(O)cc1)NC(=O)[C@H](CC(=O)O)NC(=O)[C@H](CO)NC(=O)[C@@H](NC(=O)[C@H](Cc1ccccc1)NC(=O)[C@@H](NC(=O)CNC(=O)[C@H](CCC(=O)O)NC(=O)C(C)(C)NC(=O)[C@@H](N)Cc1ccc(O)cc1)[C@@H](C)O)[C@@H](C)O)[C@@H](C)CC)[C@@H](C)CC)C(=O)N[C@@H](CC(N)=O)C(=O)N[C@@H](Cc1c[nH]c2ccccc12)C(=O)N[C@@H](CC(C)C)C(=O)N[C@@H](CC(C)C)C(=O)N[C@@H](C)C(=O)NCC(=O)NCC(=O)N1CCC[C@H]1C(=O)N[C@@H](CO)C(=O)N[C@@H](CO)C(=O)NCC(=O)N[C@@H](C)C(=O)N1CCC[C@H]1C(=O)N1CCC[C@H]1C(=O)N1CCC[C@H]1C(=O)N[C@@H](CO)C(=O)O) [Compound No. 36] | 5.5 | 356 | 4.7 | 414
8 | Y[Aib]EGTFTSDYSIILEK([εLys-εLys-γGlu-C18 diacid])QAAREFINWLLAGGPSSGAPPPS-OH (N-terminus assumed; SMILES CC[C@H](C)[C@H](NC(=O)[C@H](Cc1ccccc1)NC(=O)[C@H](CCC(=O)O)NC(=O)[C@H](CCCNC(=N)N)NC(=O)[C@H](C)NC(=O)[C@H](C)NC(=O)[C@H](CCC(N)=O)NC(=O)[C@H](CCCCNC(=O)[C@@H](N)CCCCNC(=O)[C@@H](N)CCCCNC(=O)CC[C@H](NC(=O)CCCCCCCCCCCCCCCCC(=O)O)C(=O)O)NC(=O)[C@H](CCC(=O)O)NC(=O)[C@H](CC(C)C)NC(=O)[C@@H](NC(=O)[C@@H](NC(=O)[C@H](CO)NC(=O)[C@H](Cc1ccc(O)cc1)NC(=O)[C@H](CC(=O)O)NC(=O)[C@H](CO)NC(=O)[C@@H](NC(=O)[C@H](Cc1ccccc1)NC(=O)[C@@H](NC(=O)CNC(=O)[C@H](CCC(=O)O)NC(=O)C(C)(C)NC(=O)[C@@H](N)Cc1ccc(O)cc1)[C@@H](C)O)[C@@H](C)O)[C@@H](C)CC)[C@@H](C)CC)C(=O)N[C@@H](CC(N)=O)C(=O)N[C@@H](Cc1c[nH]c2ccccc12)C(=O)N[C@@H](CC(C)C)C(=O)N[C@@H](CC(C)C)C(=O)N[C@@H](C)C(=O)NCC(=O)NCC(=O)N1CCC[C@H]1C(=O)N[C@@H](CO)C(=O)N[C@@H](CO)C(=O)NCC(=O)N[C@@H](C)C(=O)N1CCC[C@H]1C(=O)N1CCC[C@H]1C(=O)N1CCC[C@H]1C(=O)N[C@@H](CO)C(=O)O) [Compound No. 34] | 8.3 | 213 | 6 | 186
